The values that follow come from the DeepSol protein solubility set.

This data set is described as follows: soluble on expression in E. coli; label from the status in PepcDB or PDB records.
In the case of “MPKERKERSVSLDKYKRSPLCCEASLALKPSEKQVKEWEEARCPVCMEHPHNGILLICSSYENGCRPYMCDTSHRHSNCFDQFRKASKEKPSLSLLREEEESNEPTEMEDVDSDSTAVNLLGEAASEITVVDLSDGERGEEEVEEEEEEVVVEEEEEGIVTTEEDQEKNKPQKLTCPLCRGHIKEWVVVKAARCFMNSKHRSCSCETCDFSGSYSDLRKHARLLHPGVRPSEADPERQRSWRRLERQSDLGDLLSTLQSSFGGDEISNDDGFLFADTRLLTVYFLIRVFRPESSGSRSSSWSGTSRARTHTSGRRRSSRPASLWGESYEGNTGTSPRDEENNQSSDEQVSGTRRRRSRRRTVIDDDDEEEEP”, the “soluble on expression in E. coli” value was “not soluble”.

Take “MPKIPITLITGFLGSGKTSFLSEYLNQTDHQGVALIINEIGQAALDQRILSVQYCGEKMLYLNAGCVCCNKRLDLVESLKATLNNYEWHGEILRRIIIETTGLANPAPILWTILSDTFLGVHFEIQSVVACVDALNAREHLTNNEAKEQIVFADSVLLTKTDLQNDSAALTKLKERIQALNPSAEIFDKRAIDYESLFSRKNRARNFMPLEHHHHHH”: the “soluble on expression in E. coli” value was “not soluble”.

As to “MPKISSRDGGRPAQRTVNPIIVTRRGKIARLESGLTPQEAQIEDLVFLRKVLNRADIPYLLIRNHKNRPVLAINIELRAGLERALAAACATEPMYAKTIDEPGLSPVLVATDGLSQLVDPRVVRLYRRRIAPGGFRYGPAFGVELQFWVYEETVIRCPVENSLSRKVLPRNEITPTNVKLYGYKWPTLDGMFAPHASDVVFDIDMVFSWVDGSDPEFRARRMAQMSQYVVGEGDDAEARIRQIDELKYALRSVNMFAPWIRRIFIATDSTPPPWLAEHPKITIVRAEDHFSDRSALPTYNSHAVESQLHHIPGLSEHFLYSNDDMFFGRPLKASMFFSPGGVTRFIEAKTRIGLGANNPARSGFENAARVNRQLLFDRFGQVITRHLEHTAVPLRKSVLIEMEREFPEEFARTAASPFRSDTDISVTNSFYHYYALMTGRAVPQEKAKVLYVDTTSYAGLRLLPKLRKHRGYDFFCLNDGSFPEVPAAQRAERVVSFLERYFPIPAPWEKIAADVSRRDFAVPRTSAPSEGA”, the “soluble on expression in E. coli” value is “soluble”.

For the sequence “MPKLGIKPLRRQQLIDATLRSISERGLQNTTIVSISKIAGMSSGIISHYFGGKKELIEETVSYLLDQLQQSLLERITEENPPAHIRLNLIVEANFTEFQRSLLATKTWLSFWAMSMHDPAMARLQSINSNRLHSNLLFSFKELLDPESAANAAKQTAAMIDGFWLRSALSENSEQEFIAAELLCKKFINDVIKQEISNASN”, the “soluble on expression in E. coli” value is listed as “not soluble”.

As to “MPKLILLGDSTLDNFNWVPNKATVTDHLRRQLPKMEILNFAVDGFTTDSILYGEYKDCAVTSSQHTHKYFEPLKALENEQDVEHIVLSVLGNDFRIQLSKLIFMAPEERPKAIEQLINHIIKNYIQVVKEIRKVQPNAKLSIVLQYTPYVENDPYLIYFLMDKLFHHGTVSHGFLSYLQIMYYSIFGLNSKHEQQALNLLHKLMAKVYRNVFNELGDNSLAIIDLASSFDYRNSKLYKAQIEPSDEGGKLIASLITHTITHHDFQNESMLYAKPPLQPNPKILAVPLTKLKKDWFPQQIYVTQEQAITAFKQAYLLQLNKDRQSYLGLYSFFARSNVDFEHATLEKLIVHAQNYSTKKTGYRTLKVMQNLGWLTEQGNIKEESGIVRLLKN”, the “soluble on expression in E. coli” value is “not soluble”.

As for “MPLLDSFKVDHTKMNAPAVRIAKTMLTPKGDNITVFDLRFCIPNKEILSPKGIHTLEHLFAGFMRDHLNGDSIEIIDISPMGCRTGFYMSLIGTPNEQKVSEAWLASMQDVLGVQDQASIPELNIYQCGSYTEHSLEDAHEIAKNVIARGIGVNKNEDLSLDNSLLKGSHHHHHH”, the “soluble on expression in E. coli” value is reported as “soluble”.

“MPLSYYEKGIMYKRKNFMGPAVKCFEEARKLEEKVGSKASLELAKIYAYFKDYEEAYKYCKEAISKSNYIEAYYLMVRILLLSNTPINEILKKAGKVKIHNSLLADIFCFEGNYEVALKIIDTCLKEDEVTRDLELIKIKCLLKLKQYDKCKDYIDNFSQSYLYFFKIRMYKVICCVLLEEYRLAWKIIDEFDYKKLSLYNKNKLKAYINFYNAALDIRGITPHENDEEYYSCIFEIIDILLATKEIKCLKKLIQTISKYDGGYLELAELYSNYGYVSEAKKLIVLYIKKFEVVNNKMIYILQKLEHHHHHH”: the “soluble on expression in E. coli” value was “not soluble”.

Take “MPLTNNSTTKPQEIAAIDLGSNSFHMVIARVVNGALQVLGRLKQRVHLADGLDSNNMLSEEAIERGLACLALFAERLQGFSPDNVCIVGTHTLRQAANAETFLKRAAEVIPYPIEIISGQEEARLIFMGVEHTQPEKGRKLVIDIGGGSTEMVIGEDFEPLLVESRRMGCVSFAQQFFPGGEISKNNFRRARLAAAQKLENLAWQYRIQGWQYALGASGTIKATYEVLVEMGEKDGLITPERLEMLVENVLQFKQFSALSLPGLSEDRQSVFVPGLAILCGVFDALAIKTLRLSDGALREGVLYEMEGRFRHQDIRQRTAKSLADHYNIDREQARRVLETTEQLYTQWLAQNTKLVQPQLEALLKWAAMLHEVGLSINHSGMHRHSAYILQNTNLPGFNQEQQTLLATLVRMHRKAIKLDELPRLNLFKKKYYLPLIQLLRLSTLLNNQRQSTTTPESLRLITDDSHWTLRFPHGYLTQNSLVQLDFEREQAYWDDVVGWKLVIEEEEPDEAAKVAPEE”: the “soluble on expression in E. coli” value is reported as “soluble”.

For the sequence “MPLTPADVHNVAFSKPPIGKRGYNEDEVDAFLDLVENELTRLIEENSDLRQRINELDQELAAGGGAGVTPQATQAIPAYEPEPGKPAPAAVSAGMNEEQALKAARVLSLAQDTADRLTNTAKAESDKMLADARANAEQILGEARHTADATVAEARQRADAMLADAQSRSEAQLRQAQEKADALQADAERKHSEIMGTINQQRAVLEGRLEQLRTFEREYRTRLKTYLESQLEELGQRGSAAPVDSNADAGGFDQFNRGKN”, the “soluble on expression in E. coli” value is on record as “soluble”.

On to “MPLVNSHIVEECLPFTSLRLDPEDINLSMGAGYVPDAEIQAISDALETEIAGICTPRFLYALFDAEPAGTCEVGVNGISLKTGSVITPYLKDAAGYVLFVATAGYEFEAFQHRIGSQGDILREFLLDAYGSAIAEAVVREVCRKVESRMFPLGYGVSHPYSPGYCGWHVTQQQLLFSCLPEFPCGVRLSDSSLMSPIKSVSGIIAYGPCIVKRKYGCELCGKADCYKNRNKLNRLEHHHHHH”, for which the “soluble on expression in E. coli” value is given as “soluble”.

Take “MPLYRTYIEGEFLLGIWKSDETTEQLLASLEHKDWYREKLAVLSEKRKHEWLSVRVLLKALCGEEKEIAYYSSGRPYLKDGSRYISISHTRGYVAVALHSSCEVGMDIEQYGTRVRKVASRFIRSDEEPAMMEGDEVYALLLHWSAKEALFKLMGVEEVDFIRHLRIFPFSLSEEGEFEACEYRTGRQERYRVRYVTHPDFVLTWIIK”: the “soluble on expression in E. coli” value is recorded as “not soluble”.

Regarding “MPMTGRCREPNCHAVVVRPLHYCTKHADKEAAYQASRERWTNRTSNSKRYKDYDRMRSKDPFKAEQHKFYQGKQWRSIREIALRRDNYLCQYCLNHKRVRTGNIGDHIVPYEVEPENRTNLANIAIACSKCHTAKTKWEQLYYGTGMGNKLKNAIPIRNVKDLPDFQKNIRLEHHHHHH”, the “soluble on expression in E. coli” value was “not soluble”.

As to “MPNITWCDLPEDVSLWPGLPLSLSGDEVMPLDYHAGRSGWLLYGRGLDKQRLTQYQSKLGAAMVIVAAWCVEDYQVIRLAGSLTARATRLAHEAQLDVAPLGKIPHLRTPGLLVMDMDSTAIQIECIDEIAKLAGTGEMVAEVTERAMRGELDFTASLRSRVATLKGADANILQQVRENLPLMPGLTQLVLKLETLGWKVAIASGGFTFFAEYLRDKLRLTAVVANELEIMDGKFTGNVIGDIVDAQYKAKTLTRLAQEYEIPLAQTVAIGDGANDLPMIKAAGLGIAYHAKPKVNEKAEVTIRHADLMGVFCILSGSLNQK”, the “soluble on expression in E. coli” value is “not soluble”.

In the case of “MPNKNTQEYWEERGRKAIENELKRDKTKAEEIERILNMMIKRIEKEINAFIVKYGDFAGVTLQEAQKIIDEFDVKAFQEEAKRLVENKDFSDRANEELKKYNTKMYVSREQMLKIQIEFLIAYATAQTELSMREYFESTAYRVFSDQAGILGEGVQVAKEVIDTIVDTQFHGVVWSERLWTNTEAMKQEVEEIIANVVIRGRHPNEYVKDMRKHLNKFEGTARQKTAAIKSLLYTESARVHAQSSIDSMKEISPEGYYMYIAKIDNRTTKVCKGLNGEIFKVKDAKIGVNFYPMHINCRSDCALLPKSMWPKKPSKKRKTKYFGGKVKSGD”, the “soluble on expression in E. coli” value is recorded as “not soluble”.

As for “MPNLSCGVDNCAYNQNDMCSLNSIKVNGSFANHSEATCCGSFVEKGGFTNAAVDMGPAEPATSVACEAEKCCYNKNCKCHAESIDISGDYAQHQDNTECSTFRQELEHHHHHH”, the “soluble on expression in E. coli” value is on record as “soluble”.
